Source: the DeepSol protein solubility set

Experiment: soluble on expression in E. coli; label from the status in PepcDB or PDB records
For “MAHHHHHHMILHGALSQERDRLLSSYLKSPITLSFPPPLPLLALPSPPSFFVYKKNVFFFRLGMGDARSASSKASSPSCVLAATPRDFGRSAEPGDSPRPPIIAVLYRPGQAKRERQPARGGRGGGQRRLVSYFLPALAAHVRHGKQWTTYPLSFLYPYRPSHSLSTPPHTPSIITDPRITRRKLASVLSLFYLQSVTMMASGGDEQLDALVDSILQSSDHLGSIDQITQRLPSPQQQQLSNPAFTSSTQQREHTSSDSHDTGVRAHMHAVSPGGSSSSVGNFVVAVPAAHHASASTSRATATHLDTEDGEKGEEEDDLSALVERILAGPGVRGRPSTSSASSPRFSQVPPPHIGNSGATSTSGLKGATRVKGGSSSLSRTFGAGPASPNARMQAVVRRLTLWYERKEAKRVQAVYEALEREQLDCTFEPRINRLGVEVGGSVVVDEDDRPLHRRHYSADEYPRRSSASSKARGSSGSRAVSHTNTISMSSSSSRVTPHVCEYIPSLQPPSQPITGADAFVERLRRAQDERDTVREAEEAKRLHYYDPTTFRRDLTVPVPFEFVETRPRRLAAAMTAAAGGSPSRGPGDIVGVTRTSIPPFSARAAALAACGDAGATPPRPAEDGFRDVNEDKRLTPENTFLSLAPHIRETLLFDRQMELQLRRATDSVRRVTRGE”, the “soluble on expression in E. coli” value was “not soluble”.
In the case of “SPCKYSRSEVVLTFFERSPLDQVLKNDNVHKIQPSFQSPVKISEIMRSNGFCLANTETIVIDHSIPNGRDQQLGVDQTEHLFENGSEFPSELEDGDDPAAYVTNLSYYHLVPFETDIWD”, the “soluble on expression in E. coli” value is reported as “soluble”.
For “MGDIMQQQLTQALEAYLQKLDDEARIEAINAFRQVLHHYSPFRSQPVDCVLWVKQELVAPNDYNPNNVAPPEKRLLQTSLEADGFTQPVVVIQQRPQAYTIVDGFHRHELACSKAALKKTLKGYLPVTCLTSEAASRDGLMAATIRHNRARGRHQIHAMSEIVRELTQLGWTPQKIGKELGMDADEVLRLKQISGLTEMFAGRQFSQAWTIK”, the “soluble on expression in E. coli” value was “not soluble”.
In the case of “MQIFRDVSKLLVERVDPKILNLFRLLGKFGDEVNMPVYVVGGFVRDLLLGIKNLDIDIVVEGNALEFAEYAKRFLPGKLVKHDKFMTASLFLKGGLRIDIATARLEYYESPAKLPDVEMSTIKKDLYRRDFTINAMAIKLNPKDFGLLIDFFGGYRDLKEGVIRVLHTLSFVDDPTRILRAIRFEQRFDFRIEETTERLLKQAVEEGYLERTTGPRLRQELEKILEEKNPLKSIRRMAQFDVIKHLFPKTYYTPSMDEKMENLFRNIPWVEENFGEVDRFYAVLHVFLEFYDDESWKEVRDRYSLRRNLINEIRHVEKSAPALLEMLSERVPASFVYPLVKGVSNETICHFLAYLSGEKEGLFKSYLLKIKNTKLEKINGEYLIRKGITSGKIIGEVLEKILMKKLDGDTRDEEEILEEVLASLETEGKLAAALEHHHHHH”, the “soluble on expression in E. coli” value is reported as “soluble”.
With “MGHHHHHHSHRRQHPLPLLLLRHLRPQAHREPPQVYTSSQPLRVGYYETDNYTMPSPAMRRAVLETKQSLEAAGHTLVPFLPSNIPHALETLSTGGLFSDGGHTFLQNFKGDFVDPCLGDLVSILKLPQWLKGLLAFLVKPLLPRLSAFLSNMKSRCTAKP” the “soluble on expression in E. coli” value was “not soluble”.
In the case of “MGSDKIHHHHHHMKILRHFLNATDPCMLQQHIRSIKQDEPANLAIAFGNIDAIVHLSQATEITQLATSWVVTSSCIAAFSDIAAEDNQNHLAILQFYDPQGSYGVASKQSSIDSIIEDSQQALTLALNAANRPGELPAFIWCSQSPGLEEGLLAGIRQLVGNNVPVFGGTAADNDVSGHWCMFDGQQTITTGFIIAVLFPSTPINYFFSSGYETTRHTAIVTSASGRKLHTLNHQPAASVYNQWRTMMALPTLANGPVLAQSTFNPLGRVILDNDEQMTLLSHPAFIYGDGTMELFSEVYQGEQLTFMHGNQTLLIQRAQTVTHFATQQLHDLYDSKPLAAIVIFCAGCMLAIKNETSQVRQGVENALGNVPFIGGFTFGEQGRFADGVNRHGNLMISAIIFGHPNE”, the “soluble on expression in E. coli” value is reported as “not soluble”.
In the case of “MSLHSDILVVGAGPAGLSFAAELAGSGLKVTLIERSPLTVLQNPPYDGREIALTHFSREIMQRLGMWDKIPENEIYPLRDAKVLNGRSDYQLHFPQPTEARGEPADCLGYLISNHNIRRAAYEVVSQLDNVSILTDTAVKEVKTSDNEAQVFLENGDILTARLLLAADSRFSQTRRQLGISSDMHDYSRTMFVCRMKHTLSNQHTAYECFHYGRTIALLPLEKRLTNTVITVDTDKINSVQNLSPEELAASVKEQLKGRLGDMELVSSIHHYPLVGMIAKRFYGKRSALIGDAAVGMHPVTAHGFNLGLSSADILAKLILEAEQRGQDIGAASLLEKYSSKHMLHAHPLYHGTNMMLKLFTNETAPAKLLRGLVLRAGNNFPPLKKLITKQLTGLEHHHHHH”, the “soluble on expression in E. coli” value is reported as “soluble”.
With “MCMGIFKRVSNMVKAKVNNTLDEMENPIELLDQKIRDMEESLNKAKISSAQILGNAHEIEKKLQKARLESEDYDSKVKLAVKNGNDDLAKRALERKLDADKRESLQKSYEDASQKSKVIKDKLRTLEEEIEKTRAYRDEAAARFNNAEATKKVNEVLSNVDTGSNSINLDDIERKIERKEAMAEGLGDLRNEDSLEKEFEKLNETNLDDELAKYKNNIKLEHHHHHH” the “soluble on expression in E. coli” value was “soluble”.
With “MLNTTFANAKFANPFMNASGVHCMTIEDLEELKASQAGAYITKSSTLEKREGNPLPRYVDLELGSINSMGLPNLGFDYYLDYVLKNQKENAQEGPIFFSIAGMSAAENIAMLKKIQESDFSGITELNLSCPNVPGKPQLAYDFEATEKLLKEVFTFFTKPLGVKLPPYFDLVHFDIMAEILNQFPLTYVNSVNSIGNGLFIDPEAESVVIKPKDGFGGIGGAYIKPTALANVRAFYTRLKPEIQIIGTGGIETGQDAFEHLLCGATMLQIGTALHKEGPAIFDRIIKELEEIMNQKGYQSIADFHGKLKSL” the “soluble on expression in E. coli” value was “soluble”.
With “METQDHTLYVLLGPTGVGKTDLSLDIAERLGSPIISADSRQIFRELPIGTAAPTPEQRAKVPHLFVGTHSVRDYYSAGMYEVEVLEALKELFRKYRGVLLTGGSMMYIDAVCRGIDDIPDPFPEVREELYARYAAEGLDGILAQLRLLDPDYYAKVDRRNYKRVIHGLEICLSTGRPFSSFHRHEAKERPFRIVKIGLYREREELCKRIDARVLEMMEQGLEEEARAVYPLRHLNALNTVGYKEMFEYFDGSIDRAEAVRRIQRNSRVYARKQMTWFRRDSTIRWFHPEADKGTVLTLVT” the “soluble on expression in E. coli” value was “not soluble”.
With “MGSDKIHHHHHHMQMNLGLDVGYGDVKAVYQREGILEMLKFPTAIAYAEREVGDLSAFAGGEEYEYRGRKYFVGREALVGAFSTRSFEFMKRYSPLFVFKAVKKIHRRTGELVTDVAMGLPLSHYTEANLKELVPLLQRIEVGREVLELNARFYPQGLGVLADYRLSQAGDVNARTDRDMIILDIGFNTVDVIVVERGRIVKGESDTLERHGVSKISLDLAREIKVRMQLDLSEQESKDVLRQGRIRVYGAERDLAELVRESAEKYMDWLIQEVHSKWMARIQRAEKVIIAGGGAYYLQEHIPEEYLPLVHVPDHPEYANARGFLKALDVESGK” the “soluble on expression in E. coli” value was “not soluble”.
In the case of “MSLSRVTEIRYVGYGVKDFDAEKAFYADVWGLEPVGEDANNAWFKAQGADEHHVVQLRRADENRIDVIALAADSRSDVDALRASVEAAGCKVASEPAVLATPGGGYGFRFFSPDGLLFEVSSDVAKGAKRDLARWEGVPVKISHIVLHSPNHQDMVKFFTDVLGFKVSDWLGDFMCFLRCNSAHHRIAILPGPPCLNHVAYDMLSVDDMMRGAHRLKVKGIDIGWGPGRHTAGNNTFSYFVTPGGFVTEYTSELEEVDFDTHQYKVHVPAPMVMDQWGIGTGGPQTLPHPHANPGLFQTAEAEGHHHHHH”, the “soluble on expression in E. coli” value is reported as “soluble”.
For “QLIAATGCPTGIAHTYMAQEALEQAAKRKGITIKVETHGQIGIENELTPAEIQGAEAVIIAADKDVQAERFAGKRIIDVPVSVGIKEADRLIEEALAGKGSIA”, the “soluble on expression in E. coli” value was “not soluble”.
With “MGSDKIHHHHHHMSESAIADFVSSFIPDTATHVEPVRGRVVMSKRRIVLAADDEKTTIPLNGVFDVQHETAPGDLARFFEDTVTIAYEHDEDRHVAVIEGGGSTVDRFVTLVFKALVHGTTVYAKHPARRGGRITDQPFEKGNLALSPGDLTITGDADTTIDLSTVSHFERVDREVNGSNKQLLSVRHMGSTGPITTELALSSGRKMNLLGRYIRLQYTHLKQELADVTLTSEEIEALVAIYSSGPNASLAAVLGVDASRVTMLLNDLIEKELVTDDDGIALTSLGRAAVSEHIEDVNL” the “soluble on expression in E. coli” value was “not soluble”.
For “MQGKDNYQEQQEINSTDEEGMIFQLADTTIQACNAAAERIIGYKNEQILGKTPFKPPWQIVHEDGTIFTPETVPPIVALQTGKPCKNVVMGLYQPTGQLVWLLLNSQPLFQTNKSTPYAVVTTFTDFTKVKCRQSRSDACITNNKKLIVTWNQDQAVEISPNTDKQKLNQPVAEPISDDCTKAFLSMQNHILELIATGNSLSEILEKLAQSIEAQLAEVFCSIMLLNDTGTKLYPGVSSSLPEKYIQELKNGVPVGADVGSCGTSAYTKQTVIVSDIASDHKWVKYRDLTLTNNLKACWSTPILDSQGHVLGTFALYYPTVRIPQKSDLQLIERASHLAGVAIERQRWQLALQQSEYQLRLMTETIPQQVWTAQPNGLVDYYNQRWCDFTGKTQEQLKTESWEQIIHPEDLPKVEELWAKAVQTGSDYEVETRMLSGSGEYHWILGQARPLRNQQGQIVKWYGTNTDITDHIQAREALRESELNFRTLADTMPQMIWTAKGDGWLEYCNQRWLDYTGMTLEETQGWGWQPVLHPDDAQICIDIWSESVRTGQNYQIEYRLRRARDGQYRWHLGRAFPLRNQKGQIIKWFGSCTDIDDHKRSEEALRNALQEKQAAYEAAETANRVKDEFLAILSHELRTPLNPILGWSQLLKTGKLDKDKTDEALKSIERNAKLQVDLIDDLLDVSRILRGKLTLNVTTVNLADIISAALETMSLAASVKQIAVQTLIEPNIGKVRGDPARLQQIVWNLLSNAIKFTPQGGEVVVQLEQIGSMAHIIVSDQGKGINRKFLPHIFEHFRQEDGSTTRKFGGLGLGLAIVRHLVELHGGTVEADSPGEGQGTTLKVILPLISSLPVTVTNGQFEDVALSLKGIKILVVDDDVDSLAFVKVVLELYEATVTTAASAPEALQIGVQLKPDVLISDIGMPEMDGYELLRRMRALSSDLGGDIPAVSKAIPKAIALTAFAGELDEQQAMAAGFQIHIPKPVEPEALAAAVAQVLKINV”, the “soluble on expression in E. coli” value was “not soluble”.
In the case of “MLTLYTSPSCTSCRKARAWLQEHEIPFKERNIFSEPLNIEELKAILIMTEDGTEEIISTRSKVFQKLNMDLDELPLQDLLELVQENPGLLRRPIMIDEKRLQVGFNEDEIRRFLPRDVRQLELRQAQLMAGL”, the “soluble on expression in E. coli” value is reported as “soluble”.
For “MPGQPFGVYLHVPFCLTRCGYCDFNTYTPAQLGGVSPDRWLLALRAELELAAAKLDAPTVHTVYVGGGTPSLLGGERLATLLDMVRDHFVLAPDAEVSTEANPESTWPEFFATIRAAGYTRVSLGMQSVAPRVLATLDRVHSPGRAAAAATEAIAEGFTHVNLDLIYGTPGESDDDLVRSVDAAVQAGVDHVSAYALVVEHGTALARRVRRGELAAPDDDVLAHRYELVDARLSAAGFAWYEVSNWCRPGGECRHNLGYWDGGQWWGAGPGAHGYIGVTRWWNVKHPNTYAEILAGATLPVAGFEQLGADALHTEDVLLKVRLRQGLPLARLGAAERERAEAVLADGLLDYHGDRLVLTGRGRLLADAVVRTLLG”, the “soluble on expression in E. coli” value was “not soluble”.
With “MGSDKIHHHHHHMSTDTDDDSGSHGCKAPDSDGEVAENIAIVAFERKMDTAEDIVDGIGDRYESIDILEYHGDVFEEYWGEYDCFIGLMASGIAMRKTAHLLDDKWDDPAICVVDEELTWAIPITGGHHGANQVADDLASMGAVPAMTTASEAADKQGVEKQAKALDAHVVNGDSTVATNLAVLDDELGPIERLDGPKAVLVDDDVTVLKRNKDDGIVLGCGSVAGADVEQFHAAWEQALDEADLDRDDVEFVATGTRKADEEGMLAAAEEWGLGVIAFEKETLEGFEGPTPSRSKELIGWPGIAEASAIAAGSEHDLLAEKTRYDEAVTVAIGR” the “soluble on expression in E. coli” value was “not soluble”.
With “LKCSTVVCVICLEKPKYRCPACRVPYCSVVCFRKHKEQCNPET” the “soluble on expression in E. coli” value was “soluble”.
